The values below come from publication PMC5264606, “Clusterin: full-length protein and one of its chains show opposing effects on cellular lipid accumulation” (Scientific Reports, 2017).

Series [1] deals with the molecule itself. Kind of series: AUC; sedimentation velocity; 0.5 mg/ml in 20 mM phosphate buffer pH 7.4, 18,000 rpm, 20 °C, An50Ti rotor; SEDFIT (Lamm equation); self-association into large oligomers.
Series [2] concerns the molecule itself. Kind of series: dynamic light scattering; 1 mg/ml in PBS pH 7.4, filtered through 0.22 μm, 25 °C; hydrodynamic radius; self-association.

B1: α-chain of human clusterin (α-Clu), recombinant (domain or fragment, UniProt P10909 23-227, looked up)
chain: DQTVSDNELQEMSNQGSKYVNKEIQNAVNGVKQIKTLIEKTNEERKTLLSNLEEAKKKKEDALNETRESETKLKELPGVCNETMMALWEECKPCLKQTCMKFYARVCRSGSGLVGRQLEEFLNQSSPFYFWMNGDRIDSLLENDRQQTHMLDVMQDHFSRASSIIDELFQDRFFTREPQDTYHYLPFSLPHRRPHFFFPKSRIVR
notes: The printed primers encode M-DQTVSD... at the start and ...RIVR-stop at the end; Printed theoretical subunit mass: 24 kDa; The NdeI site of the forward primer adds an initiator Met before D23; Not glycosylated (bacterial). cDNA came from IMR32 human neuroblastoma cells; also called α-clusterin
Take B1: in series [1], the “stoichiometry N” value is about 60 subunits per oligomer.

B2: β-chain of human clusterin (β-Clu), recombinant (domain or fragment, UniProt P10909 228-449, looked up)
chain: SLMPFSPYEPLNFHAMFQPFLEMIHEAQQAMDIHFHSPAFQHPPTEFIREGDDDRTVCREIRHNSTGCLRMKDQCDKCREILSVDCSTNNPSQAKLRRELDESLQVAERLTRKYNELLKSYQWKMLNTSSLLEQLNEQFNWVSRLANLTQGEDQYYLRVTTVASHTSDSDVPSGVTEVVVKLFDSDPITVTVPVEVSRKNPKFMETVAEKALQEYRKKHREE
notes: The printed primers encode M-SLMPFSP... at the start and ...HREE-stop at the end; The NdeI site of the forward primer adds an initiator Met before S228; Not glycosylated (bacterial). cDNA came from IMR32 human neuroblastoma cells; also called β-clusterin
As for B2, in series [2], the binding result was “binds”.

As a reminder, the stoichiometry N is a count of units in the complex or per binding partner.
